Measurements from patent US20240024414.

Each substance was assayed against L7Ae (50S ribosomal protein L7Ae, L30 family, RBP11) (Archaeoglobus fulgidus) (UniProt O29494) (assay: pulldown). Details: RIP-Seq enrichment, may be indirect.
L7Ae (50S ribosomal protein L7Ae, L30 family, RBP11) (Archaeoglobus fulgidus), sequence (O29494 whole entry): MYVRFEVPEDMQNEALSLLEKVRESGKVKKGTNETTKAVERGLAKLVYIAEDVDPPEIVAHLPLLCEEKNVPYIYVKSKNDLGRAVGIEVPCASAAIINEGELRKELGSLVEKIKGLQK

| Substance | binding signal (log2 fold change) |
| --- | --- |
| FAM69A RNA | 4.98 |
| NPM1 RNA | 3.22 |
| SNORA62 RNA | 3.32 |
| SNORA73B RNA | 4.08 |
| SNORA79B RNA | 3.28 |
